Source: paper PMC6827426 (Translational Vision Science & Technology, 2019)

Each binder was assayed against T1, vascular endothelial growth factor (VEGF) (Homo sapiens, UniProt P15692-4) (assay: SPR; Biacore T200; VEGF immobilised, Fabs as analyte). Conditions: both partners purified.
T1 construct: vascular endothelial growth factor (VEGF-A); The SPR paragraph says only 'immobilized VEGF'; also called recombinant human VEGF
T1 sequence (P15692 whole entry): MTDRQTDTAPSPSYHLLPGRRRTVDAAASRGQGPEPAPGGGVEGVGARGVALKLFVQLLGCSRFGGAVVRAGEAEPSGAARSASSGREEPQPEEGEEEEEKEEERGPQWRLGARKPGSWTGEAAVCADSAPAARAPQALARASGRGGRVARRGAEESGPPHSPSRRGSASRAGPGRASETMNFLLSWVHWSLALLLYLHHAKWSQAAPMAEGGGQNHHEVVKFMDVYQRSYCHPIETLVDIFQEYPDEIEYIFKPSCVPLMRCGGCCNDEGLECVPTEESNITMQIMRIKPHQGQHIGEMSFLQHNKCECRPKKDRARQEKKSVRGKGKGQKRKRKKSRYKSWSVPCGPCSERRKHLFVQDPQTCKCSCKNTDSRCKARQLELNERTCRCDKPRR

Row | Kd [nM] | Binder
1 | < 5 | RBZ–3 (Fab, V domains shown, as the light chain of m1 (ranibizumab) before CDR-L1; CDR-L1, same as ranibizumab; as the light chain of m1 (ranibizumab) between CDR-L1 and CDR-L2; CDR-L2, changed from FTSSLHS of ranibizumab; as the light chain of m1 (ranibizumab) after CDR-L2; as the heavy chain of m1 (ranibizumab Fab), unchanged; Charge variant, relative charge -3 against ranibizumab; changes only in CDR-L2; also called TA_2; …) VH: EVQLVESGGGLVQPGGSLRLSCAASGYDFTHYGMNWVRQAPGKGLEWVGWINTYTGEPTYAADFKRRFTFSLDTSKSTAYLQMNSLRAEDTAVYYCAKYPYYYGTSHWYFDVWGQGTLVTVSS VL: DIQLTQSPSSLSASVGDRVTITCSASQDISNYLNWYQQKPGKAPKVLIYDTSDLESGVPSRFSGSGSGTDFTLTISSLQPEDFATYYCQQYSTVPWTFGQGTKVEIK
2 | < 5 | RBZ+7 (Fab, V domains shown, as the light chain of m1 (ranibizumab) before CDR-L1; as the light chain of m1 (ranibizumab) between CDR-L1 and CDR-L2; CDR-L2, changed from FTSSLHS of ranibizumab; as the light chain of m1 (ranibizumab) after CDR-L2; as the heavy chain of m1 (ranibizumab Fab), unchanged; Charge variant, relative charge +7 against ranibizumab; also called TA_3; source: E. coli, 10 L fermentation, purified …) VH: EVQLVESGGGLVQPGGSLRLSCAASGYDFTHYGMNWVRQAPGKGLEWVGWINTYTGEPTYAADFKRRFTFSLDTSKSTAYLQMNSLRAEDTAVYYCAKYPYYYGTSHWYFDVWGQGTLVTVSS VL: DIQLTQSPSSLSASVGDRVTITCRARQGIRNYLNWYQQKPGKAPKVLIYKTSRRHSGVPSRFSGSGSGTDFTLTISSLQPEDFATYYCQQYSTVPWTFGQGTKVEIK

The next lines start with the binder.

Row | Binder | Kd [nM]
3 | RBZ-HI low (Fab, V domains shown, as the light chain of m1 (ranibizumab) before CDR-L1; as the light chain of m1 (ranibizumab) between CDR-L1 and CDR-L2; CDR-L2, changed from FTSSLHS of ranibizumab; as the light chain of m1 (ranibizumab) after CDR-L2; as the heavy chain of m1 (ranibizumab Fab), unchanged; Hydrophobicity variant; source: E. coli, 10 L fermentation, purified (Protein G-Sepharose, cation exchange Hitrap SP HP)) VH: EVQLVESGGGLVQPGGSLRLSCAASGYDFTHYGMNWVRQAPGKGLEWVGWINTYTGEPTYAADFKRRFTFSLDTSKSTAYLQMNSLRAEDTAVYYCAKYPYYYGTSHWYFDVWGQGTLVTVSS VL: DIQLTQSPSSLSASVGDRVTITCQASQDISNSLNWYQQKPGKAPKVLIYSTSNLHSGVPSRFSGSGSGTDFTLTISSLQPEDFATYYCQQYSTVPWTFGQGTKVEIK | < 5
4 | RBZ-HI high (Fab, V domains shown, as the light chain of m1 (ranibizumab) before CDR-L1; as the light chain of m1 (ranibizumab) between CDR-L1 and CDR-L2; CDR-L2, changed from FTSSLHS of ranibizumab; as the light chain of m1 (ranibizumab) after CDR-L2; as the heavy chain of m1 (ranibizumab Fab), unchanged; Hydrophobicity variant; source: E. coli, 10 L fermentation, purified (Protein G-Sepharose, cation exchange Hitrap SP HP)) VH: EVQLVESGGGLVQPGGSLRLSCAASGYDFTHYGMNWVRQAPGKGLEWVGWINTYTGEPTYAADFKRRFTFSLDTSKSTAYLQMNSLRAEDTAVYYCAKYPYYYGTSHWYFDVWGQGTLVTVSS VL: DIQLTQSPSSLSASVGDRVTITCSVSQVISSWLAWYQQKPGKAPKVLIYFASSLQTGVPSRFSGSGSGTDFTLTISSLQPEDFATYYCQQYSTVPWTFGQGTKVEIK | < 5
